Measured values published in patent US20120282183A1 (CANCER RESEARCH TECHNOLOGY, published 2012).

Target: T1, human 5T4 oncofoetal glycoprotein (human, UniProt Q13641 32-420)
T1 construct: whole, on cells; also called h5T4; trophoblast glycoprotein
T1 sequence (looked up): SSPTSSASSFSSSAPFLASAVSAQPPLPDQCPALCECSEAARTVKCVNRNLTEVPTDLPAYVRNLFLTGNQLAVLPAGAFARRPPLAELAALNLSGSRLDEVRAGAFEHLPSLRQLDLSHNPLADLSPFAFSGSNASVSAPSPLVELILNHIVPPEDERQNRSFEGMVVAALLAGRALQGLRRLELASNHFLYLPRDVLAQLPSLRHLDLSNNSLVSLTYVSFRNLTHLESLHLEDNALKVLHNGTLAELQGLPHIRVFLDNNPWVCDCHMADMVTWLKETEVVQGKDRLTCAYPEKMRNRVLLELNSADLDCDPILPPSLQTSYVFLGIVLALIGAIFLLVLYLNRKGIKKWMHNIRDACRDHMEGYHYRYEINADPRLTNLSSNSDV
Assay: summary of the pull down and Western blot experiments
Protocol: Denistometric scans of western blots between approximately 60-140 kDa (5T4 probe) and 30-140 kDa (CXCR4 probe). […] Under reducing conditions, the epitope recognized by 5T4 antibodies is destroyed but CXCR4 at 46 kD is detectable on the reduced gels of the 5T4 pulldown, (not shown). Thus, specific pull downs but not the controls, probed with either anti-CXCR4 or anti-5T4 detected molecules migrating ≈130 kDa in all the tumor lines.
Western blots were carried out using a BioRad Mini-PROTEAN Tetra (Thermo Fisher) supplemented with protease and phosphatase inhibitor cocktails (Thermo Fisher). RIPA buffer (50 mM Tris-Cl pH 7.4, 150 mM NaCl, 1% NP40, 0.25% Na-deoxycholate, 1 mM PMSF and protease and phosphatase inhibitor cocktail) was used as an alternative method of cell lysis. The compound PD98059 (Thermo Fisher) was applied to cells to inhibit MEK1 at 100 μM for 1 h prior to CXCL12 stimulation. Other primary antibodies used were ERK1/2, phospho-ERK1/2 (Thr202/Tyr204/Thr185/Tyr187), AKT and phospho-AKT (Thr308) (Cell Signalling Technology) at 1:1000. Following secondary antibody labelling using appropriate HRP conjugates (AbSerotec) hybridizing bands were detected using SuperSignal West Dura (Thermo Fischer). […]

binding result: binds
B1: human CXCR4 (receptor, UniProt P61073 1-352, looked up)
chain: MEGISIYTSDNYTEEMGSGDYDSMKEPCFREENANFNKIFLPTIYSIIFLTGIVGNGLVILVMGYQKKLRSMTDKYRLHLSVADLLFVITLPFWAVDAVANWYFGNFLCKAVHVIYTVNLYSSVLILAFISLDRYLAIVHATNSQRPRKLLAEKVVYVGVWIPALLLTIPDFIFANVSEADDRYICDRFYPNDLWVVVFQFQHIMVGLILPGIVILSCYCIIISKLSHSKGHQKRKALKTTVILILAFFACWLPYYIGISIDSFILLEIIKQGCEFENTVHKWISITEALAFFHCCLNPILYAFLGAKFKTSAQHALTSVSRGSSLKILSKGKRGGHSSVSTESESSSFHSS
notes: whole, on cells; Endogenous CXCR4 of human tumour cell lines, tested as unreduced solubilised membrane fractions (Western blot, pull down); also called chemokine (C-X-C motif) receptor 4
